Experimental data reported in patent US20220401560A1, “PEPTIDE ENCAPSULATING FERRITIN” (Ajinomoto Co., Inc., priority 2019, published 2022).
Positions of bridges follow the written chain, without caps; N, C: chain ends. No end group written: not given here. *: point of attachment. Pent4ynoyl = C#CCCC(=O)*

How the values were obtained:
ferritin (FTH) [1] = molecular target: T1, ferritin (FTH) (Homo sapiens, UniProt P02794); assay: Search for peptides capable of being encapsulated into ferritin by disassembly/reassembly process, LC-MS detection; set-up: key to encapsulation: “A” represents peptides with three times of confirmation of encapsulation.; “B” represents peptides with two times of confirmation of encapsulation or less.; “C” represents peptides without confirmation of encapsulation; conditions: for encapsulation: encapsulation into ferritin (FTH), three trials; for MS peak of peptide derived from peptide encapsulating ferritin: FTH, disassembly/reassembly process performed
T1 construct: made in house; host or cells: Escherichia coli BL21 (DE3), plasmid pET20-FTH
T1 sequence (P02794 whole entry): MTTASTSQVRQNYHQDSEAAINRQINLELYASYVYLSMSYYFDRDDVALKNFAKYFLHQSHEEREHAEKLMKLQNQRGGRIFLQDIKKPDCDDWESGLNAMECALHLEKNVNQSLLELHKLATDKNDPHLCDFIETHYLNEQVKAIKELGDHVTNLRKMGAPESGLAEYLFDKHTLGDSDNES
Experimental: Peptides capable of being encapsulated into ferritin by disassembly/reassembly process were searched. In the disassembly/reassembly process, 1 mL of a 50 mM glycine hydrochloride buffer (pH 2.3) containing FTH at a final concentration of 5 mg/mL and the peptide at a final concentration of 0.5 mM, was left to stand at room temperature for 15 minutes. Next, 310 μL of a 1 M Tris hydrochloride buffer (pH 9.0) was added for neutralization, and left to stand at room temperature for 3 hours. After the standing, 1.2 mL of a 50 mM Tris hydrochloride buffer (pH 8.0) was added, and centrifuged (at 15,000 rpm for one minute). Thereafter, 2.5 mL of its supernatant was injected into a desalting column PD-10 (Sephadex G-25 filled product, GE Healthcare Inc.) equilibrated with a 50 mM Tris hydrochloride buffer (pH 8) for the elusion with 3.0 mL of a 50 mM Tris hydrochloride buffer (pH 8.0) to separate non-encapsulated peptides and ferritin. A whole amount (3.0 mL) of the resulting solution was concentrated to 0.1 mL by centrifugal ultrafiltration using Vivaspin 20-100K (GE Healthcare Inc.). The operation of adding 10 mL of a 50 mM Tris hydrochloride buffer to the concentrated solution and then concentrating was repeated twice to remove peptides that were not removed by PD-10 to obtain 0.1 mL of a sample solution. For the LC-MS analysis, 50 p1 of a 1 M glycine hydrochloride buffer (pH 2.3) was added to 50 μL of the sample solution and then the resulting solution was left to stand at room temperature for 15 minutes. To the solution, 900 μL of ethanol was added. Next, the resulting solution was stirred vigorously and then centrifuged (at 15,000 rpm for five minutes) for collection of the supernatant. The supernatant was analyzed using LCMS-2020 (Shimadzu Corporation) as LC-MS, Inertsil (Registered trademark) as a column, ODS-3, particle diameter of 2 μm and 2.1 mm×50 mm (GL science). Thereafter, 10 μL of the sample injected into the column was eluded at a flow rate of 0.2 mL/min for 10 minutes such that a mixing ratio of a solution A (0.1% formic acid/99.9% acetonitrile) and a solution B (50% water/50% acetonitrile) is from 95:5 to 95:5.
The encapsulation of the peptide into ferritin was studied by comparing in terms of the amount of the peptide detected by LC/MS between the sample prepared by encapsulating the peptide into ferritin at the disassembly/reassembly process and the sample prepared simply by mixing ferritin with the peptide. For example, ClAc-FHC was eluted at a retention time of 0.8 minute. […] However, the peak was not observed for the sample prepared by simply mixing the peptide with ferritin without performing the disassembly/reassembly process (FIG. 12B). FIG. 13 to FIG. 17 illustrate LC-MS results for FTH in which the peptide was encapsulated at the disassembly/reassembly process.

ferritin (FTH) [2] = molecular target: T1, ferritin (FTH); assay: Encapsulation of fluorescent dye-modified peptide into FTH, column chromatography with absorbance at 480 nm and LC-MS; conditions: absorbance at 480 nm at elution position of 24-mer FTH; LC-MS
Experimental: Of a 50 mM glycine hydrochloride buffer (pH 2.3) that contains FTH (chemical formula weight: 509,421) at a final concentration of 5 mg/mL and the peptide at a final concentration of 0.5 mM, 0.5 mL was left to stand at room temperature for 15 minutes. Next, 50 μL of a 1 M Tris hydrochloride buffer (pH 9.0) was added for neutralization, and the resulting solution was left to stand at room temperature for 3 hours. After the standing, the resulting solution was centrifuged (at 15,000 rpm for one minute). Then, the supernatant was collected and the volume was increased up to 3 mL with a 10 mM Tris hydrochloride buffer (pH 8). The resulting solution was injected into the HiPrep 26/60 Sephacryl S-300 HR column (GE Healthcare Inc.) equilibrated with a 10 mM Tris-HCl buffer (pH 8.0) to separate and purify 24-mer FTH by size at a flow rate of 1.3 mL/minute. The purified ferritin was analyzed using a HiPrep 16/60 Sephacryl S-300 HR column (GE Healthcare Inc.) equilibrated with a 10 mM Tris-HCl buffer (pH 8.0) at a flow rate of 0.5 mL/minute and confirmed as the absorbance at 480 nm unobservable from FTH only, at the same position as that of a peak of FTH.
The solution containing the FTH was concentrated to 0.25 mL by centrifugal ultrafiltration using Vivaspin 20-100K (GE Healthcare Inc.). […] For the LC-MS analysis, 50 μL of a 1 M glycine hydrochloride buffer (pH 2.3) was added to 50 μL of the sample solution and then the resulting solution was left to stand at room temperature for 15 minutes. To the solution 900 μL of ethanol was added. Next, the resulting solution was stirred vigorously and then centrifuged (at 15,000 rpm for five minutes) to collect its supernatant. The supernatant was analyzed using LCMS-2020 (Shimadzu Corporation) as LC-MS, inertsil (Registered trademark) ODS-3 with a particle diameter of 2 μm and 2.1 mm×50 mm (GL science) as a column. Into the column, 10 μL of the sample was injected, and eluded at a flow rate of 0.2 mL/min for 10 minutes such that a mixing ratio of a solution A (0.1% formic acid/99.9% acetonitrile) and a solution B (50% water/50% acetonitrile) was from 95:5 to 95:5. The concentration of the contained protein was determined using a protein assay CBB solution (Nacalai Tesque, Inc.) in terms of bovine albumin as a standard. The concentration of the encapsulated peptide was determined based on the absorbance at 480 nm of the fluorescent dye FAM to which PKC-F is modified.
First, the construction of FTH encapsulating two kinds of fluorescent dye-modified peptides [5(6)—FAM-[…] (SEQ ID NO: 10), FAM-SV40, chemical formula weight 1,516, and 5(6)—FAM-[…] […] (SEQ ID NO: 11), FAN-Np, chemical formula weight 384] was attempted. 0.5 mL of a 50 mM glycine hydrochloride buffer (pH 2.3) that contains FTH (chemical formula weight 509,421) at a final concentration of 5 mg/mL and a peptide at a final concentration of 0.5 mM, was left to stand at room temperature for 15 minutes. Next, 50 μL of a 1 M Tris hydrochloride buffer (pH 9.0) was added for neutralization, and the resulting solution was left to stand at room temperature for 3 hours. […] The absorbance at […] was confirmed at the same elusion position as that of ferritin 24-mer, for ferritin that was used for the operation to encapsulate FAM-SV40 therein. […] Next, the peptide amount of FAM-SV40 encapsulated in purified ferritin was quantified based on the 480 nm absorbance and by CBB staining with use of ferritin-amount-albumin as a standard.

Substance	encapsulation of peptide in FTH (ferritin (FTH) [2])	MS peak of peptide derived from peptide encapsulating ferritin (ferritin (FTH) [1])	encapsulation (ferritin (FTH) [1])
5(6)-FAM-CGGKRPAAIK KAGQAKKKKG (SEQ ID NO: 11) ({5(6)‑FAM}-CGGKRPAAIKKAGQAKKKKG) [FAM-Np, fluorescent dye-modified peptide, linear]	not encapsulated		C
EEEEEEEEEE (SEQ ID NO: 16) [Ex10]		presence	A (“A” represents peptides with three times of confirmation of encapsulation.)
FBP0032: cyclic peptide with disulfide bond, X is 4-pentynoic acid (Pent4ynoyl-GQKGCKKTPKLASLSCTGF; disulfide 5-16 (inferred))		presence	A (“A” represents peptides with three times of confirmation of encapsulation.)
FBP0033: cyclic peptide with disulfide bond, X is 4-pentynoic acid (Pent4ynoyl-GRPGCGPRKPRTPKKCGSH; disulfide 5-16 (inferred))		presence	A (“A” represents peptides with three times of confirmation of encapsulation.)
HTSD (SEQ ID NO: 12) [EGFR]		presence	A (“A” represents peptides with three times of confirmation of encapsulation.)
Pakti-L1: cyclic peptide, cysteine sulfur bonded to acetyl group at N-terminus ({CH2CO}-YILVRNRLLRVDCG; thioether N-13)		presence	B (“B” represents peptides with two times of confirmation of encapsulation or less.)
RRRRRRRRRR (SEQ ID NO: 17) [Rx10]			C
cyclo (AS (D-Pro) PTWI (Dab) (Orn) (D-Dab)(Dab)W(Dab)(Dab)) [Murepavadin, reference compound]		presence	A (“A” represents peptides with three times of confirmation of encapsulation.)

Further lines, with some results ahead:

encapsulation of peptide in FTH (ferritin (FTH) [2])	MS peak of peptide derived from peptide encapsulating ferritin (ferritin (FTH) [1])	Substance	encapsulation (ferritin (FTH) [1])
	presence	GGKRPARGGKRPAR (SEQ ID NO: 19) (Synthetic amino acid sequence of the peptide NRP-1-2 which is to be tested for encapsulation with ferritin) [linear peptide]	A (“A” represents peptides with three times of confirmation of encapsulation.)
	presence	GIRLRGGIRLRGGIRLRG (SEQ ID NO: 22) (Synthetic amino acid sequence of the peptide GRP78-3 which is to be tested for encapsulation with ferritin) [linear peptide]	B (“B” represents peptides with two times of confirmation of encapsulation or less.)
	presence	QMARIPKRLARHQMAR (SEQ ID NO: 21) (Synthetic amino acid sequence of the peptide NS which is to be tested for encapsulation with ferritin) [linear peptide]	A (“A” represents peptides with three times of confirmation of encapsulation.)
	presence	SPRGDLAVLGHKY (SEQ ID NO: 18) (Synthetic amino acid sequence of the peptide avb6 which is to be tested for encapsulation with ferritin) [ανβ6, linear peptide]	B (“B” represents peptides with two times of confirmation of encapsulation or less.)
	presence	VLWLKNR (SEQ ID NO: 14) (Synthetic amino acid sequence of the peptide FGF3-FP16 which is to be tested for encapsulation with ferritin) [linear peptide]	B (“B” represents peptides with two times of confirmation of encapsulation or less.)
	presence	cyclo(PPYVPLII) (SEQ ID NO: 15) (cyclic; Synthetic amino acid sequence of the peptide Hymenistatin I which is to be tested for encapsulation with ferritin) [cyclic peptide purchased from Sigma-Aldrich, reference compound]	B (“B” represents peptides with two times of confirmation of encapsulation or less.)
	presence	cyclo(RGDFV) (SEQ ID NO: 13) [cyloRGDfV, reference compound]	B (“B” represents peptides with two times of confirmation of encapsulation or less.)
